Data: US20230118024A1 (Chugai, published 2023)
Read-outs that look alike come from different tables or passages of the source.

T1: recombinant HLA-DQ2.5/33mer gliadin peptide complex (human; wheat)
T1 construct: also called soluble HLA-DQ2.5/33mer gliadin peptide complex
T1 alpha: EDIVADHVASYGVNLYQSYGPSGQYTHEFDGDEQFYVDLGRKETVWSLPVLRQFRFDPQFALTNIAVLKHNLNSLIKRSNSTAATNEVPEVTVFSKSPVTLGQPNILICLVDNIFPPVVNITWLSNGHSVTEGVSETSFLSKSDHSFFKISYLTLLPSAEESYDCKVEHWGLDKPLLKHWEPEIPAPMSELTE
T1 beta: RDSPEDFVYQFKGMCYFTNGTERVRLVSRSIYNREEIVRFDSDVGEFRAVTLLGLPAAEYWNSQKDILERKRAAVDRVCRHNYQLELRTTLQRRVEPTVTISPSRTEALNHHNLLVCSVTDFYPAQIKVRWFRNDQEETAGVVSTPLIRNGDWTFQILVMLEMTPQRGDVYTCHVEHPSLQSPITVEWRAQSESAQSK
T1 peptide: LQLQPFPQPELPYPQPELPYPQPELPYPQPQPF

T2: HLA-DQ2.5 on Ba/F3 cells (not in the form of a complex with a linked peptide) (human, UniProt P01909 24-254; P01920 33-261)
T2 construct: also called Ba/F3-HLA-DQ2.5; No peptide
T2 MHC II alpha: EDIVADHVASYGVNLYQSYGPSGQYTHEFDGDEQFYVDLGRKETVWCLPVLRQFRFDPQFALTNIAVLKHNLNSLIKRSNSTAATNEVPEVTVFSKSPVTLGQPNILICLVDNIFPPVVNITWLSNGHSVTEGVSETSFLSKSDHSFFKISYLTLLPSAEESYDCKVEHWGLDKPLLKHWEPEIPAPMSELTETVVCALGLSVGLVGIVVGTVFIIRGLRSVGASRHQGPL
T2 MHC II beta: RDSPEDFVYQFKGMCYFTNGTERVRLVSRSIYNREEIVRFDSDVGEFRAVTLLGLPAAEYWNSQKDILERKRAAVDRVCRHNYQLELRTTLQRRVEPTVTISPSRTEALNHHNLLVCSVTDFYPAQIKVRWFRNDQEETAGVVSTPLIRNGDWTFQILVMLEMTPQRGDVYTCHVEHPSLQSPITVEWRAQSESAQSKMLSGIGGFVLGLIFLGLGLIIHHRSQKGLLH

T3: HLA-DQ2.5 on HLA-DQ2.5 positive PBMC-B cells (human, UniProt P01909 24-254; P01920 33-261)
T3 construct: also called DQ2.5 + PBMC; HLA-DQ2.5+PBMC B cell
T3 MHC II alpha: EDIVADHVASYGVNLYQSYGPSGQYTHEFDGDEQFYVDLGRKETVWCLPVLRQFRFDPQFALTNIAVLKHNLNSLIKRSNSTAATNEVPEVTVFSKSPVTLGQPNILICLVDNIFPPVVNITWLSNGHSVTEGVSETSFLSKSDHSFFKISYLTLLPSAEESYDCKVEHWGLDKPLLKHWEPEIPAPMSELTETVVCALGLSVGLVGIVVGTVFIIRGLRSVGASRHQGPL
T3 MHC II beta: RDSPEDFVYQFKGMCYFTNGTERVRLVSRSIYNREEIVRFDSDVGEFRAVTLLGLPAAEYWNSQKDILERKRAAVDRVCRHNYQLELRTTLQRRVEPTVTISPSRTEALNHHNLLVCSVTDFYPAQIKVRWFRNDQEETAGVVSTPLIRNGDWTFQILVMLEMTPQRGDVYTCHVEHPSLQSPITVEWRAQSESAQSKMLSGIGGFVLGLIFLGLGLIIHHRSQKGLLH


Tests used:
[1] = molecular target: T1, recombinant HLA-DQ2.5/33mer gliadin …; experiment: SPR, Ab captured, 37 C, pH 7.4
[2] = molecular target: T4, HLA-DQ2.5/33mer gliadin peptide complex on Ba/F3 cells (human; wheat); experiment: cell-based or functional assay
[3] = molecular target: T2, HLA-DQ2.5 on Ba/F3 cells (not in the …); experiment: FACS
[4] = molecular target: T5, HLA-DQ2.5/alpha 1b gliadin peptide complex on Ba/F3 cells (human; wheat); experiment: FACS
T5 construct: also called Ba/F3-HLA-DQ2.5/alpha 1b gliadin peptide

[5] = molecular target: T6, HLA-DQ2.5/secalin 1 peptide complex on Ba/F3 cells (human; rye); experiment: FACS
T6 construct: also called Ba/F3-HLA-DQ2.5/secalin 1 peptide

[6] = molecular target: T4, HLA-DQ2.5/33mer gliadin peptide complex …; experiment: FACS
[7] = molecular target: T7, HLA-DQ2.5/alpha 1 gliadin peptide complex on Ba/F3 cells (human; wheat); experiment: FACS
T7 construct: also called Ba/F3-HLA-DQ2.5/alpha 1 gliadin peptide

[8] = molecular target: T8, HLA-DQ2.5/CLIP peptide complex on Ba/F3 cells (human); experiment: FACS
T8 construct: also called Ba/F3-HLA-DQ2.5/CLIP peptide

[9] = molecular target: T9, HLA-DQ2.5/secalin 2 peptide complex on Ba/F3 cells (human; rye); experiment: FACS
T9 construct: also called Ba/F3-HLA-DQ2.5/secalin 2 peptide

[10] = molecular target: T10, HLA-DQ2.5/omega 2 gliadin peptide complex on Ba/F3 cells (human; wheat); experiment: FACS
T10 construct: also called Ba/F3-HLA-DQ2.5/omega 2 gliadin peptide

[11] = molecular target: T3, HLA-DQ2.5 on HLA-DQ2.5 positive PBMC-B …; experiment: FACS
[12] = molecular target: T11, HLA-DQ2.5/omega 1 gliadin peptide complex on Ba/F3 cells (human; wheat); experiment: FACS
T11 construct: also called Ba/F3-HLA-DQ2.5/omega 1 gliadin peptide

[13] = molecular target: T12, HLA-DQ2.5/alpha 2 gliadin peptide complex on Ba/F3 cells (human; wheat); experiment: FACS
T12 construct: also called Ba/F3-HLA-DQ2.5/alpha 2 gliadin peptide

[14] = molecular target: T1, recombinant HLA-DQ2.5/33mer gliadin …; experiment: SPR, Ab captured, 37 C, pH 7.4
[15] = molecular target: T1, recombinant HLA-DQ2.5/33mer gliadin …; experiment: AlphaLISA neutralizing assay: biotinylated HLA-DQ2.5/33mer gliadin peptide complex on acceptor beads, biotinylated D2 TCR on donor beads; blocked ligand: D2 TCR (Example 4.4)
[16] = molecular target: T1, recombinant HLA-DQ2.5/33mer gliadin …; experiment: AlphaLISA neutralizing assay: biotinylated HLA-DQ2.5/33mer gliadin peptide complex on acceptor beads, biotinylated D2 TCR on donor beads; blocked ligand: D2 TCR (Example 12)

Row | Binder | Kd [1] [nM] | IC50 (read off the curve) [2] [µg/mL] | FIG. 30 FACS value (IC17=0, DQN0139bb=100) [3] | FIG. 30 FACS value (IC17=0, DQN0139bb=100) [4] | FIG. 30 FACS value (IC17=0, DQN0139bb=100) [5] | FIG. 30 FACS value (IC17=0, DQN0139bb=100) [6] | FIG. 30 FACS value (IC17=0, DQN0139bb=100) [7] | FIG. 30 FACS value (IC17=0, DQN0139bb=100) [8] | FIG. 30 FACS value (IC17=0, DQN0139bb=100) [9] | FIG. 30 FACS value (IC17=0, DQN0139bb=100) [10] | FIG. 30 FACS value (IC17=0, DQN0139bb=100) [11] | FIG. 30 FACS value (IC17=0, DQN0139bb=100) [12] | FIG. 30 FACS value (IC17=0, DQN0139bb=100) [13] | Kd [14] [nM] | IC50 (read off the curve) [15] [µg/mL] | IC50 (read off the curve) [16] [µg/mL]
1 | DQN0324hh (antibody, human IgG1, kappa, V domains shown, also called DQN0324Lh) VH: QSLEESGGDLVKPGASLALTCTASGFSLINNYYMCWVRQAPGKGLEWIACIYAGLGGWTYYASWAKGRFTISKTSSTTVTLQMSSLTVADAATYFCARAATTYYHFNLWGPGTLVTVSS VL: AVVLTQTESPVSAAVGDTVTIKCQASQSIGNALAWYQQKPGQPPKLLIYDASTLASGVPSRFKGSGSGTQFTLTISDLECADAATYYCQSYDYGSSADTYTFGGGTKVEIKR | 6.32 | ~0.2 | 0 | 8.2 | 16.3 | 59.2 | 26.9 | 0.3 | 14.5 | 79.4 | 0.3 | 7.3 | 34.9 |  |  | 
2 | DQN0225dd (antibody, human IgG1, kappa, V domains shown, also called DQN0225Hd; DQN0225Ld) VH: QSLEESGGGLVKPGGTLTLTCTASGFSFSSAYYMCWVRQAPGKGLEWIACIYVGSGSTYYASWAQGRCTISKASSTTVTLQMTSLTAADTATYFCARDPLIYYYYGELNLWGPGTLVTVSS VL: AVVLTQTASPVSAPVGGTVTIKCQASEDISSNLAWYQQKPGQRPKVLIYSASTLASGVSSQFKGSGSGTQFTLTISDLECADAATYYCQSYYDISSVTFGGGTKVEIKR | 7.88 | ~0.3 | -0.1 | 81.3 | 77.2 | 108 | 93.5 | 1.2 | 68.7 | 62 | -0.1 | 75.6 | 85.1 |  |  | 
3 | DQN0334bb (antibody, human IgG1, kappa, V domains shown, also called DQN0334Hb; DQN0334Lb) VH: QQQLEESGGDLVQPEGSLTLTCKASGFDFSFNAMCWVRQAPGRGPEWIACIYNGNGSTYYASWAKGRFTISKTSSTSVTLQMTSLTAADTATYFCARGGYGLGYAGYGDVNYFNLWGPGTLVTVSS VL: AVVLTQTASPVSAPVGGTVTIKCQASEDIYFLLAWYRQKPGQPPKLLIYGASTLASGVPSRFKGSGSGTEYTLTISDLECADAATYYCQSYWYGDSGPNTFGGGTKVEIKR | 5.72 |  | 0.4 | 16.5 | 5 | 65.9 | 46.4 | 1.2 | 3.3 | 36.6 | 0.8 | 2.8 | 45.3 | 6.29 | ~1 | ~0.7
4 | DQN0282ff (antibody, human IgG1, kappa, V domains shown, also called DQN0282Hf; DQN0282Lf) VH: QSVEESGGRLVTPGTPLTLSCKASGFDFSIYYMSWVRQAPGKGLEWIGVINSGGGVTWYASWVKGRFTISKTSTTVDLKITSPTTEDTATYFCARLGDSNHYDLWGPGTLVTVSS VL: AYDMTQTPSSVSAAVGGTVTIKCQASETISSYLAWYQQKPGQRPQLLIYDASNLASGVPSRFKGSGSGTEFTLTISDLECADAATYYCQTHYYITSTTFGGGTKVEIKR | 11.4 |  | 3 | 20.9 | 49.6 | 73.5 | 32.6 | 28.7 | 48 | 42.6 | 4.3 | 7 | 34.5 | 13.7 | ~0.3 | 
